± gives the uncertainty stated by the source.

Sequences and labels used below:
B1: Glucocorticoid receptor, residues 419 to 494; numbered along this chain, P04150 (parent)
chain: KLCLVCSDEASGCHYGVLTCGSCKVFFKRAVEGQHNYLCAGRNDCIIDKIRRKNCPACRYRKCLQAGMNLEARKTK

Variants of B1 are the subject of this data set. Nature of the data set: abundance fitness (aPCA) (normalised: wild type 0, dead -1); higher = more abundant; growth selection in yeast, the domain comes from the species named. Particulars: Homo sapiens.
For the variant KRCLVCSDEASGCHYGVLTCGSCKVFFKRAVEGQHNYLCAGRNDCIIDKIRRKNCPACRYRKCLQAGMNLEARKTK [L2R], the abundance fitness was found to be 0.032 ± 0.035. Turning to KLCLVCSDEASGCHYGVLTCGSCKVFFKRAVEGQHNYLCAGRNDCIIDKIRRKNCPACRKRKCLQAGMNLEARKTK [Y60K], the abundance fitness was -0.011 ± 0.054. Turning to KLCLVCSDEASGCHYGVLPCGSCKVFFKRAVEGQHNYLCAGRNDCIIDKIRRKNCPACRYRKCLQAGMNLEARKTK [T19P], the abundance fitness was -0.791 ± 0.13. Regarding KLCLVCSDEASGCHYGVLTCGSCKVFFKRAVEGQHNYLCAGRNACIIDKIRRKNCPACRYRKCLQAGMNLEARKTK [D44A], the abundance fitness was -0.014 ± 0.035. As for KLCLVCSDEASGCHYGVLTCGSCKVFFKRAVEGQHNYLCAGRNTCIIDKIRRKNCPACRYRKCLQAGMNLEARKTK [D44T], the abundance fitness is -0.023 ± 0.052.

As for KLCLVCSDEASGCHYGVLTCGSCKVFFKRAVEGQHNYLCAGRNDCIIDKIRRKNCPACRYRKCLQAGMNLEARGTK [K74G], the abundance fitness was -0.006 ± 0.037. In the case of KLCLVCSDEASGCHYGVLTCGSCKVFFKRAVEGQHNHLCAGRNDCIIDKIRRKNCPACRYRKCLQAGMNLEARKTK [Y37H] it was -0.117 ± 0.088; in that of KLCLVCSDEACGCHYGVLTCGSCKVFFKRAVEGQHNYLCAGRNDCIIDKIRRKNCPACRYRKCLQAGMNLEARKTK [S11C], -0.102 ± 0.07. In the case of KLCLVCSDEASGCHYGVLTCGSCKVFFKDAVEGQHNYLCAGRNDCIIDKIRRKNCPACRYRKCLQAGMNLEARKTK [R29D] it was 0.02 ± 0.072; in that of KLILVCSDEASGCHYGVLTCGSCKVFFKRAVEGQHNYLCAGRNDCIIDKIRRKNCPACRYRKCLQAGMNLEARKTK [C3I], -0.684 ± 0.2; in that of KLCLVCSDEASGCHYGVLTCGSCKVFFKRAVEGQHNYLCAGRNDCIIDKIRRKNCPACRYRKCLQAGMNLYARKTK [E71Y], -0.131 ± 0.081. The figure for KLCLVCSDEASGGHYGVLTCGSCKVFFKRAVEGQHNYLCAGRNDCIIDKIRRKNCPACRYRKCLQAGMNLEARKTK [C13G] is -0.154 ± 0.033; for KLCLVCNDEASGCHYGVLTCGSCKVFFKRAVEGQHNYLCAGRNDCIIDKIRRKNCPACRYRKCLQAGMNLEARKTK [S7N] it is -0.111 ± 0.065.

For the variant KLCLVCSDEASGCHYGVLTCGSCKVFFKRAVEGQHNYLCAGRNDCIIDHIRRKNCPACRYRKCLQAGMNLEARKTK [K49H], the abundance fitness was -0.045 ± 0.076. As to KLCLVCSDEASGCHYGVLTTGSCKVFFKRAVEGQHNYLCAGRNDCIIDKIRRKNCPACRYRKCLQAGMNLEARKTK [C20T], the abundance fitness is -0.87 ± 0.17. In the case of KLCLVCSDEASGCMYGVLTCGSCKVFFKRAVEGQHNYLCAGRNDCIIDKIRRKNCPACRYRKCLQAGMNLEARKTK [H14M] it was -0.163 ± 0.049; in that of KLCLVCSDEASGCPYGVLTCGSCKVFFKRAVEGQHNYLCAGRNDCIIDKIRRKNCPACRYRKCLQAGMNLEARKTK [H14P], -0.24 ± 0.056; in that of KLCLVCSDEASGCHYGVLTCGSCKVFFKRAVEGQHNYLCAGQNDCIIDKIRRKNCPACRYRKCLQAGMNLEARKTK [R42Q], 0.127 ± 0.049. In the case of KLCLVCSDEASGCHYGVLTCGSCKVFFKRAVEGQHNYLCFGRNDCIIDKIRRKNCPACRYRKCLQAGMNLEARKTK [A40F] it was -0.088 ± 0.17; in that of KLCLVCSDEASGCHYGVLTCGSCKVFFKRAVEGQHNYLCHGRNDCIIDKIRRKNCPACRYRKCLQAGMNLEARKTK [A40H], -0.192 ± 0.094. The figure for KLCLVCSDEASGCHYGVLTCGSCKVFFKRAVEGQHNYLSAGRNDCIIDKIRRKNCPACRYRKCLQAGMNLEARKTK [C39S] is -0.927 ± 0.12; for KLCLVCSDEASGCHYGVLTCGSCKVFFKRAVEGQHNYLCAGRGDCIIDKIRRKNCPACRYRKCLQAGMNLEARKTK [N43G] it is -0.024 ± 0.03.

As for KLCLVCSDEASGCHYGVLTCGSCKVFFKRAVEGQHNYLCAGRNDCIIDKIRAKNCPACRYRKCLQAGMNLEARKTK [R52A], the abundance fitness is -0.051 ± 0.04.

Take KLCLVCSDEASGCHYGVLTCGSCKVFFKRAVEGQHNYLCAGRNDMIIDKIRRKNCPACRYRKCLQAGMNLEARKTK [C45M]: the abundance fitness is -1.18 ± 0.32. The figure for KLCLVCSDEASGCHYGQLTCGSCKVFFKRAVEGQHNYLCAGRNDCIIDKIRRKNCPACRYRKCLQAGMNLEARKTK [V17Q] is -0.194 ± 0.047; for KLCLVCSDEASGCHYGVLTCGSCKVFFKRGVEGQHNYLCAGRNDCIIDKIRRKNCPACRYRKCLQAGMNLEARKTK [A30G] it is -0.274 ± 0.038; for KLCLVCSDEASRCHYGVLTCGSCKVFFKRAVEGQHNYLCAGRNDCIIDKIRRKNCPACRYRKCLQAGMNLEARKTK [G12R] it is -0.074 ± 0.034. In the case of KLCLVCSDEASGCHVGVLTCGSCKVFFKRAVEGQHNYLCAGRNDCIIDKIRRKNCPACRYRKCLQAGMNLEARKTK [Y15V] it was -0.208 ± 0.038; in that of KLCLVCSDEASGCHIGVLTCGSCKVFFKRAVEGQHNYLCAGRNDCIIDKIRRKNCPACRYRKCLQAGMNLEARKTK [Y15I], -0.298 ± 0.084. In the case of KLCLVCSDEASGCHYGVLTCGSCKVFFKRAVEGQHNYLCAGRNDCTIDKIRRKNCPACRYRKCLQAGMNLEARKTK [I46T], the abundance fitness was found to be 0.029 ± 0.049. In the case of KLCLVCSDEASGCHYGVLTCGSCKVFFKRAVEGQHNYLCAGRNDCIRDKIRRKNCPACRYRKCLQAGMNLEARKTK [I47R] it was -0.406 ± 0.035; in that of KLCLRCSDEASGCHYGVLTCGSCKVFFKRAVEGQHNYLCAGRNDCIIDKIRRKNCPACRYRKCLQAGMNLEARKTK [V5R], -0.669 ± 0.077. The figure for KLCLECSDEASGCHYGVLTCGSCKVFFKRAVEGQHNYLCAGRNDCIIDKIRRKNCPACRYRKCLQAGMNLEARKTK [V5E] is -0.96 ± 0.18; for KLCLVCSDEASGCHYGVLTCGSCKVFFKRAVEGQHNYLCAGRNDCIIDKIRRKNCPACRYRKCAQAGMNLEARKTK [L64A] it is -0.154 ± 0.039; for KLCLVCSDEASGCHYGVLTCGSCKVFFKRAVEGQHNYLCAGRNDCIIDKIRRKNCPACRYRKCLGAGMNLEARKTK [Q65G] it is -0.06 ± 0.039.

For KLCLVCSDEASGCHYEVLTCGSCKVFFKRAVEGQHNYLCAGRNDCIIDKIRRKNCPACRYRKCLQAGMNLEARKTK [G16E], the abundance fitness is -0.251 ± 0.05.

(Values after the Human Domainome abundance scans (Beltran et al. 2025).)
